# According to publication PMC3808164:
# Columns and labels:
# Experiment in all cases: co-IP
# [1] = biological target: GFP-tagged VP1/2 regions 6 and 7 (deletion of regions 1–5) (pseudorabies virus (PRV))
# [2] = biological target: GFP-tagged VP1/2 with a single deletion of regions 1–4 (C terminus intact) (pseudorabies virus (PRV))
# [3] = biological target: GFP-tagged VP1/2 with the region 6^S deletion combined with deletion of regions 1–4 (pseudorabies virus (PRV))
# [4] = biological target: GFP-tagged VP1/2[change]^S (deletion of region 6^S in the context of full-length VP1/2) (pseudorabies virus (PRV))
# [5] = biological target: GFP-VP1/2[change] (pseudorabies virus (PRV))
Substance,fold decrease in binding against full-length VP1/2 [1],fold decrease in binding against full-length VP1/2 [2],fold decrease in binding against full-length VP1/2 [3],fold decrease in binding against full-length VP1/2 [4],efficiency of coimmunoprecipitation as percent of full-length GFP-VP1/2 [5]
p50/dynamitin (from UniProt Q13561 1-401) (natural protein),11 fold,9 fold,23 fold,4 fold,
p150/glued dynactin subunit (from UniProt Q14203 1-1278) (natural protein),,5 fold,,5 fold,79%
